What was measured:
[1] = Liquid formulation stability, two weeks at 40° C. and 75% relative humidity; assay type: physicochemical
Description: FIGS. 53A-53B show liquid formulation stability, according to one set of embodiments. Human Insulin (HI) and Semaglutide (Sema) formulations were placed inside of either an L-SOMA or a glass vial apparatus and were subjected to a 40° C. and 75% relative humidity environment for two weeks. (a) Purity loss and (b) high molecular weight protein (HMWP) formation were then measured. (Error=SD, n=3 device replicates, **P<0.01, ***P<0.001).
Additionally, the purity loss for the liquid formulation was higher than the purity loss for the solid formulation we previously reported using in the SOMA system. Optimization of the L-SOMA storage system and loaded liquid formulation will be required to ensure long term stability of the filled drug.

[2] = In vivo swine pharmacokinetics after L-SOMA, subcutaneous or endoscopic gavage dosing
Description: In vivo swine experiments were performed in which L-SOMA devices loaded with either an inactivated GLP-1 receptor agonist or fast acting insulin were prepared. L-SOMA dosing experiments were compared to subcutaneous dosing experiments and experiments where swine were dosed with the liquid formulation into the stomach lumen. Using an endoscope, L-SOMA devices were placed into the stomachs of swine and allowed to independently actuate. After 2 hours the devices were removed from the animal. Time 0 corresponds to the time at which the device was placed in the stomach and not the time that the device actuated. The swine dosed were partially fasted but contained a layer of gastric fluid and food approximately the same height as the L-SOMA capsule.
(§1) L-SOMA dosings were compared to subcutaneous or intramuscular dosings as positive controls. Using an endoscope, we placed L-SOMA devices into the stomachs of swine and allowed them to independently actuate. After 2 hours the devices were removed from the animal.
Insulin and GLP-1 generally have limited ability to traverse the stomach lining for systemic uptake when administered without a permeation enhancer or physical permeation enhancing device.

blood glucose = assay: Blood glucose in swine after dosing; assay type: in vivo
Description: as §1

heart rate = conditions: swine; 0.24 mg; both intramuscular injection and L-SOMA groups
Description: as §1

swine stomach = assay: Histology of swine stomach after L-SOMA injection; assay type: in vivo; conditions: swine stomach after L-SOMA epinephrine injection
Description: as §1

semaglutide
high molecular weight protein formation, L-SOMA system versus glass vial system [1]: greater
purity loss, L-SOMA system versus glass vial system [1]: greater

adalimumab
uptake after endoscopic gavage (negative control) ([2]; in vivo): negligible uptake
drug in blood plasma after dosing ([2]; in vivo, sc): at least 3 days

recombinant human insulin: recombinant human insulin, 1 mg liquid dose
bioavailability, range ([2]; swine, L-SOMA dosed, 1 mg, two hour sampling period, n=8): 25%-81%
bioavailability, range ([2]; swine, dosed subcutaneously, insulin, n=3): 50.8%-66.2%
hypoglycemic onset (blood glucose; insulin 1 mg, L-SOMA (FIG. 47B) and subcutaneous (FIG. 47F)): immediate hypoglycemic onset
high molecular weight protein formation, L-SOMA system versus glass vial system [1]: greater
purity loss, L-SOMA system versus glass vial system [1]: greater

CNC[C@H](O)c1ccc(O)c(O)c1 [epinephrine]
uptake after endoscopic gavage (negative control) ([2]; in vivo): negligible uptake
plasma exposure of drug observed after administration ([2]; swine, in vivo): ≤ 15 min
blood glucose change (blood glucose; 0.24 mg, both intramuscular injection and L-SOMA groups): abrupt rise
heart rate change (heart rate): abrupt rise
H&E staining: necrosis or adverse effects elicited by the drug (swine stomach): no evidence of necrosis or adverse effects
